Measurements reported in publication PMC4482781 (Nature neuroscience, 2015).

Experiments:
[1] = system: primary human brain endothelial cells (BEC); test: Colocalization of Aβ–LRP1 complex with PICALM by immunostaining in BEC; format: cell-based; conditions: 250 nM, 30 s
[2] = system: AD–derived endothelial monolayers; test: Aβ transcytosis across AD–derived endothelial monolayers; format: in vitro ADME, human; conditions: Aβ40 (1 nM) per Fig. 8b

FAM–Aβ42: 6-carboxyfluorescein-labeled Aβ42, Anaspec catalog # 23526
colocalized Aβ–LRP1/PICALM puncta [1]: rapid increase

Aβ: amyloid β–peptide, isoform not named at the place; Aβ40 (1 nM) by legend of Fig. 8
Aβ transport improved by co–transfer of PICALM and LRP1 mini–gene [2]: 89%
Aβ transcytosis improved by adenoviral–mediated transfer of PICALM ([2]; compared to GFP control): 63%
